Results reported in patent US20190142971A1, “FORMULATION AND DELIVERY OF MODIFIED NUCLEOSIDE, NUCLEOTIDE, AND NUCLEIC ACID COMPOSITIONS” (ModernaTX, Inc., priority 2013, published 2019).

Test system: Balb-C mice
Test: Example 113: FGF21 mRNA IM with or without electroporation, serum FGF21 (Tables 181, 182)
Type: in vivo
Conditions: 5 mg/kg IM
Description: The mice undergoing electroporation were subjected to electroporation (EP) using the […]′ instrument (Harvard Apparatus/BTX®, Holliston, Mass.), as outlined in Table 181, immediately after the administration of FGF21 mRNA or the control.
Serum was collected from the mice at 2 hours and 8 hours.

B1: FGF21 modified mRNA: Fibroblast Growth Factor 21 mRNA, SEQ ID NO: 24, 5-methylcytosine and 1-methylpseudouridine, in PBS (nucleic acid)
chain: GGGAAAUAAGAGAGAAAAGAAGAGUAAGAAGAAAUAUAAGAGCCACCAUGGACUCGGACGAGACCGGGUUCGAGCACUCAGGACUGUGGGUUUCUGUGCUGGCUGGUCUUCUGCUGGGAGCCUGCCAGGCACACCCCAUCCCUGACUCCAGUCCUCUCCUGCAAUUCGGGGGCCAAGUCCGGCAGCGGUACCUCUACACAGAUGAUGCCCAGCAGACAGAAGCCCACCUGGAGAUCAGGGAGGAUGGGACGGUGGGGGGCGCUGCUGACCAGAGCCCCGAAAGUCUCCUGCAGCUGAAAGCCUUGAAGCCGGGAGUUAUUCAAAUCUUGGGAGUCAAGACAUCCAGGUUCCUGUGCCAGCGGCCAGAUGGGGCCCUGUAUGGAUCGCUCCACUUUGACCCUGAGGCCUGCAGCUUCCGGGAGCUGCUUCUUGAGGACGGAUACAAUGUUUACCAGUCCGAAGCCCACGGCCUCCCGCUGCACCUGCCAGGGAACAAGUCCCCACACCGGGACCCUGCACCCCGAGGACCAGCUCGCUUCCUGCCACUACCAGGCCUGCCCCCCGCACCCCCGGAGCCACCCGGAAUCCUGGCCCCCCAGCCCCCCGAUGUGGGCUCCUCGGACCCUCUGAGCAUGGUGGGACCUUCCCAGGGCCGAAGCCCCAGCUACGCUUCCUGAUAAUAGGCUGGAGCCUCGGUGGCCAUGCUUCUUGCCCCUUGGGCCUCCCCCCAGCCCCUCCUCCCCUUCCUGCACCCGUACCCCCGUGGUCUUUGAAUAAAGUCUGAGUGGGCGGC
modifications: 5-methylcytosine, 1-methylpseudouridine
In the case of B1, the “protein production with vs without electroporation” value is reported as “increase protein production”.
